What was measured:
Type in all cases: in vivo, Drosophila melanogaster
G85R/H71Y = experiment: Adult eclosion (emergence from the pupal case); settings: G85R/H71Y flies; expression of Gbb; 15% without Gbb
Source text: (§1) The genetically accurate model of ALS disclosed herein, can be used to elucidate not only the behavioral and electrophysiological changes, but also the cellular and molecular basis of disease progression. ALS-associated loss in motor neuron function and subsequent cell death has been attributed to defects in a number of processes from protein aggregation, increases is axonal membrane excitability, mitochondrial dysfunction, to changes in RNA metabolism and general metabolic homeostasis (49-55). This model system was used to explore the involvement of these processes in disease progression. […] The time of death varied between the different dSod1 mutations with <0.1% dSod1-G85R adults emerging from the pupal case (a feat requiring considerable muscle strength) to 33% emergence by the less severe dSod1-H71Y followed by death within 7-10 days of adulthood. […] Characterization of this progressive loss in motor function in detail during can be performed using immunohistochemical markers of muscle, as well as Drosophila lines expressing GFP-tagged muscle proteins (Mhc-mCD8-GFP) that allow visualization of muscles in living animals. Examination of the innervation of the muscles in controls and mutants is done by concomitant labeling of the MNs (CD8-RFP driven in MNs). […]

dSod1-G85R mutants = experiment: Spontaneous motor neuron activity recorded from larval muscles with motor circuit intact; settings: expression of Gbb
Source text: Consistent with the reduced motility observed in dSod1-G85R late 3rd instar larvae, there was a concordant reduction in the spontaneous activity of MNs when recorded from larval muscles in preparations with the motor circuit intact (brain and ventral nerve cord (VNC) remain attached to the body wall muscles). […] These analyses, coupled with studies on muscle structure can provide a well-defined depiction of disease progression. While ALS paralysis results from a dramatic degeneration of MNs and atrophied muscles, it is unclear when and where the decline in function originates. It could begin in a specific set of cells or the loss of function could be a systemic effect. This can be addressed using the Drosophila model system disclosed herein. For example, directed expression of channel-rhodopsin (ChR2) to specific cells or neurons can be done, followed by excitation of those cells with a flash of light and recording of the response in the circuit output of a particular larval muscle. Driving UAS-ChR2 within different neurons (OK371Gal4 in motorneurons, ChaGal4 in cholinergic neurons, specific neural Gal4 lines from Janeila Farm collection) (55) can be done to address the integrity of the neural circuit and interrogate the function of individual neurons.
Gbb, the Drosophila orthologue of vertebrate BMPs 5, 6, 7, acted as a retrograde signal at the NMJ (56). […]

[1] = tested on: dSod1-G85R and dSod1-H71Y mutant larvae; experiment: Larval locomotor (motility) defect in dSod1 mutant larvae; settings: expression of Gbb
Source text: as §1

B1: Gbb: the Drosophila orthologue of vertebrate BMPs 5, 6, 7; expressed genetically in the flies, not dosed (protein, UniProt P27091 336-455, looked up)
Protein 60A: SVSPNNVPLLEPMESTRSCQMQTLYIDFKDLGWHDWIIAPEGYGAFYCSGECNFPLNAHMNATNHAIVQTLVHLLEPKKVPKPCCAPTRLGALPVLYHLNDENVNLKKYRNMIVKSCGCH
In the case of B1, the eclosion (G85R/H71Y) is reported as 45%, the “spontaneous MN activity” value (dSod1-G85R mutants) is reported as “restored normal spontaneous MN activity” and the locomotor defect ([1]; dSod1-G85R mutant larvae) is reported as “rescued”. The locomotor defect ([1]; dSod1-H71Y mutant larvae) was “rescued”.

Source: US20160000054A1, “HUMAN-DERIVED MUTANTS OF THE dSOD1 GENE IN DROSOPHILA AND METHODS OF MAKING AND USING” (priority 2014, published 2016)
